The values that follow are results of earlier work, collected in publication PMC3161823.

The target in this data set is Complement factor H (Homo sapiens) (UniProt P08603).
Sequence of Complement factor H (Homo sapiens) (P08603 19-1231): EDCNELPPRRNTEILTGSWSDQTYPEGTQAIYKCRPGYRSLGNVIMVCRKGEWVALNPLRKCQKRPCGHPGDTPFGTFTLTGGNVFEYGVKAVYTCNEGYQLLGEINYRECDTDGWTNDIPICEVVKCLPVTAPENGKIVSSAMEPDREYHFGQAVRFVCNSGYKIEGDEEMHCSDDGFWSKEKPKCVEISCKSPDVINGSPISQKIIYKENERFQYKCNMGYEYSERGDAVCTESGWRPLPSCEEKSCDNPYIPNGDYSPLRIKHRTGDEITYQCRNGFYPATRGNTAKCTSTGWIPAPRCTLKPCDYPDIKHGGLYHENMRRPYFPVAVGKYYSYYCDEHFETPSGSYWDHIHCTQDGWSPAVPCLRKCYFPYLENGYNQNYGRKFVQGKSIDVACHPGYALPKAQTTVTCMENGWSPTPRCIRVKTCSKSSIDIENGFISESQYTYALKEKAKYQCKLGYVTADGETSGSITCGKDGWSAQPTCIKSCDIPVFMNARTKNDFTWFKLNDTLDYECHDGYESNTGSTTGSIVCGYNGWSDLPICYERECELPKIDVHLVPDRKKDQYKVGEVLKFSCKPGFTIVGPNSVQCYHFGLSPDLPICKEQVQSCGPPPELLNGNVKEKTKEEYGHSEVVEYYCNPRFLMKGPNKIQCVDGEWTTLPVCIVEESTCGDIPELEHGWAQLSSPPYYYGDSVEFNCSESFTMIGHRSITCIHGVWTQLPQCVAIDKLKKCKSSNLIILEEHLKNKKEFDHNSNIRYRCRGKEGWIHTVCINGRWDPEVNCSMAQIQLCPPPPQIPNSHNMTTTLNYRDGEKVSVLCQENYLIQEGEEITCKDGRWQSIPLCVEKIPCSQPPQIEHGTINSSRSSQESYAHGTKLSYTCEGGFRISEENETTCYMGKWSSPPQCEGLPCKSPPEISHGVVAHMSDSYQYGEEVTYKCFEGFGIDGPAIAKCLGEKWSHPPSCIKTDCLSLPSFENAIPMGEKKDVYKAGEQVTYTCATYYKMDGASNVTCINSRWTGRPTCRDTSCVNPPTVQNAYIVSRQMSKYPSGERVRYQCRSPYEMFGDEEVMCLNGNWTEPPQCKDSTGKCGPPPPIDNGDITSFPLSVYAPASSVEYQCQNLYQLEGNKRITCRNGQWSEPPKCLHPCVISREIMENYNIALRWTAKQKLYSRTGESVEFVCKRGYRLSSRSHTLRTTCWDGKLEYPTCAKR

Sequence of PTX3 (P26022 18-381): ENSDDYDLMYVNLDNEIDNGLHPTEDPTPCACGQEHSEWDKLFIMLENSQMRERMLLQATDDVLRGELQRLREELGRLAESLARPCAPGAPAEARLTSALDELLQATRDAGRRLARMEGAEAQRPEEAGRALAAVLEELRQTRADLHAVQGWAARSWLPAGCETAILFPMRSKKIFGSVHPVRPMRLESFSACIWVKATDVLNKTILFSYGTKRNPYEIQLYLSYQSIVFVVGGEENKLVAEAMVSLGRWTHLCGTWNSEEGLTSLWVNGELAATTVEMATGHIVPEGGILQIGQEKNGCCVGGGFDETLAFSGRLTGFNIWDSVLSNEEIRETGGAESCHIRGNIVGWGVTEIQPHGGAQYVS

For the substance PTX3 (from UniProt P26022), the Kd is 0.11 µM.
